Sequences and labels used below:
B1: ZNF449 (parent)
chain: HTGERPYECTVCKKRFTRRSHLIG
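Note: lentivirally expressed fusions sorted by FACS into six bins by GFP to DsRed ratio, PSI derived from sequencing read proportions per bin multiplied by bin number.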

This data set covers variants of B1. The experiment in a line: protein stability index of a GFP-peptide fusion (GPS, HEK-293T) (PSI 1-6); higher = more stable. As to conditions: c terminus: a fixed tail appended.
Consider HTGERPYECTVRKKRFTRRSHLIG [C12R], for which the protein stability index stood at 3.79.

As to HTGERPYECTVMKKRFTRRSHLIG [C12M], the protein stability index is 4.64.

On to HTGERPYECTVHKKRFTRRSHLIG [C12H], for which the protein stability index is 3.73.

Turning to HTGERPYECSVCKKRFTRRSHLIG [T10S], the protein stability index is 2.52.

HTGERPYECQVCKKRFTRRSHLIG [T10Q]: the protein stability index was 1.36.

As for HTGERPYECVVCKKRFTRRSHLIG [T10V], the protein stability index was 1.39.

As for HTGERPYECFVCKKRFTRRSHLIG [T10F], the protein stability index was 2.88.

As for HTGERPYECPVCKKRFTRRSHLIG [T10P], the protein stability index is 1.82.

In the case of HTGERPYECWVCKKRFTRRSHLIG [T10W], the protein stability index amounted to 1.3.

HTGERPYECNVCKKRFTRRSHLIG [T10N]: the protein stability index amounted to 2.17.

Turning to HTGERPYECTVCKKRFTRRLHLIG [S20L], the protein stability index worked out at 2.44.

Regarding HTGERPYECTVCKKRFTRRAHLIG [S20A], the protein stability index worked out at 1.44.

Consider HTGERPYECTVCKKRFTRRHHLIG [S20H], for which the protein stability index turned out to be 2.37.

Consider HTGERPYECTVCKKRFTRREHLIG [S20E], for which the protein stability index worked out at 2.53.

In the case of HTGERPYECTVCKKRFTRRMHLIG [S20M], the protein stability index was found to be 2.21.

HTGERPYECTVCKKRFTRRRHLIG [S20R]: the protein stability index amounted to 2.9.

As to HTGERPYECTVCKKRFTRRYHLIG [S20Y], the protein stability index came out at 3.34.

With HTGERPYECTVCMKRFTRRSHLIG [K13M], the protein stability index is 1.62.

Take HTGERPYECTVCYKRFTRRSHLIG [K13Y]: the protein stability index was determined as 2.47.

Regarding HTGERPYECTVCEKRFTRRSHLIG [K13E], the protein stability index is 2.42.

As to HTGERPYECTVCAKRFTRRSHLIG [K13A], the protein stability index is 1.63.

Take HTGERPYECTVCLKRFTRRSHLIG [K13L]: the protein stability index turned out to be 2.09.

Regarding HTGERPYECTVCVKRFTRRSHLIG [K13V], the protein stability index is 3.25.

For HTGERPYECTVCRKRFTRRSHLIG [K13R], the protein stability index is 2.31.

For HTGERPYECTVCTKRFTRRSHLIG [K13T], the protein stability index is 2.33.

For the variant HTGERPYECTVCPKRFTRRSHLIG [K13P], the protein stability index worked out at 2.86.

Take HTGERPYECTVCGKRFTRRSHLIG [K13G]: the protein stability index came to 1.52.

As to HTGERPYECTVCKKRFTRRSHLFG [I23F], the protein stability index amounted to 2.42.

With HTGERPYECTVCKKRFTRRSHLLG [I23L], the protein stability index was 2.

As for HTGERPYECTVCKKRFTRRSHLAG [I23A], the protein stability index turned out to be 2.64.

As for HTGERPYECTVCKKRFTRRSHLDG [I23D], the protein stability index was found to be 2.8.

In the case of HTGERPYECTVCKKRFTRRSHLPG [I23P], the protein stability index was 2.23.

Take HTGERPYECTVCKKRFTRRSHLWG [I23W]: the protein stability index came to 2.62.

Take YTGERPYECTVCKKRFTRRSHLIG [H1Y]: the protein stability index worked out at 2.98.

As for FTGERPYECTVCKKRFTRRSHLIG [H1F], the protein stability index turned out to be 1.78.

In the case of ITGERPYECTVCKKRFTRRSHLIG [H1I], the protein stability index was 1.74.

In the case of GTGERPYECTVCKKRFTRRSHLIG [H1G], the protein stability index was found to be 1.83.

With TTGERPYECTVCKKRFTRRSHLIG [H1T], the protein stability index is 1.7.

As to LTGERPYECTVCKKRFTRRSHLIG [H1L], the protein stability index turned out to be 1.79.

Consider MTGERPYECTVCKKRFTRRSHLIG [H1M], for which the protein stability index stood at 2.96.

Turning to HTGERPYECTVCKKRFTRRSLLIG [H21L], the protein stability index came to 3.45.

HTGERPYECTVCKKRFTRRSILIG [H21I]: the protein stability index turned out to be 1.56.

Take HTGERPYECTVCKKRFTRRSDLIG [H21D]: the protein stability index stood at 2.27.

With HTGERPYECTVCKKRFTRRSALIG [H21A], the protein stability index was found to be 2.22.

Take HTGERPYECTVCKKRFTRRSRLIG [H21R]: the protein stability index was found to be 2.37.

HTGERPYECTVCKKRFTRRSPLIG [H21P]: the protein stability index was found to be 3.26.

As for HTGERPYECTVCKKRFTRRSHLIV [G24V], the protein stability index amounted to 1.6.

Take HTGERPYECTVCKKRFTRRSHLID [G24D]: the protein stability index was 2.81.

For the variant HTGERPYECTVCKKRFTRRSHLIH [G24H], the protein stability index was determined as 1.89.

For HTGERPYECTVCKKRFTRRSHLIT [G24T], the protein stability index came to 2.45.

With HTGERPYPCTVCKKRFTRRSHLIG [E8P], the protein stability index amounted to 1.94.

For HTGERPYVCTVCKKRFTRRSHLIG [E8V], the protein stability index was determined as 2.35.

Take HTGERPYRCTVCKKRFTRRSHLIG [E8R]: the protein stability index worked out at 2.22.

HTGERPIECTVCKKRFTRRSHLIG [Y7I]: the protein stability index was 2.62.

Consider HTGERPFECTVCKKRFTRRSHLIG [Y7F], for which the protein stability index came out at 1.44.

For the variant HTGERPSECTVCKKRFTRRSHLIG [Y7S], the protein stability index was found to be 2.28.

For the variant HTGERPHECTVCKKRFTRRSHLIG [Y7H], the protein stability index was determined as 2.06.

For HTGERPQECTVCKKRFTRRSHLIG [Y7Q], the protein stability index was determined as 2.21.

In the case of HTGERPMECTVCKKRFTRRSHLIG [Y7M], the protein stability index came out at 2.11.

With HTGERPKECTVCKKRFTRRSHLIG [Y7K], the protein stability index turned out to be 2.44.

Take HTGERPTECTVCKKRFTRRSHLIG [Y7T]: the protein stability index turned out to be 2.71.

For HTGERPLECTVCKKRFTRRSHLIG [Y7L], the protein stability index amounted to 3.39.

Regarding HTGERPYEQTVCKKRFTRRSHLIG [C9Q], the protein stability index worked out at 3.64.

On to HTGERPYETTVCKKRFTRRSHLIG [C9T], for which the protein stability index is 3.14.

On to HTGERPYENTVCKKRFTRRSHLIG [C9N], for which the protein stability index is 3.63.

As for HTGERPYEKTVCKKRFTRRSHLIG [C9K], the protein stability index was 3.97.

In the case of HTGERPYEITVCKKRFTRRSHLIG [C9I], the protein stability index is 3.17.

On to HTGERPYEYTVCKKRFTRRSHLIG [C9Y], for which the protein stability index came out at 3.67.

With HTGERPYEDTVCKKRFTRRSHLIG [C9D], the protein stability index was 4.05.

As to HTGERPYEMTVCKKRFTRRSHLIG [C9M], the protein stability index was 2.8.

Turning to HTGERPYELTVCKKRFTRRSHLIG [C9L], the protein stability index came out at 2.83.

As to HQGERPYECTVCKKRFTRRSHLIG [T2Q], the protein stability index came to 2.24.

Turning to HVGERPYECTVCKKRFTRRSHLIG [T2V], the protein stability index turned out to be 1.97.

In the case of HFGERPYECTVCKKRFTRRSHLIG [T2F], the protein stability index was determined as 2.08.

On to HEGERPYECTVCKKRFTRRSHLIG [T2E], for which the protein stability index is 2.94.

HKGERPYECTVCKKRFTRRSHLIG [T2K]: the protein stability index is 2.4.

As for HAGERPYECTVCKKRFTRRSHLIG [T2A], the protein stability index amounted to 2.85.

With HDGERPYECTVCKKRFTRRSHLIG [T2D], the protein stability index is 2.23.

As for HTGERPYECTVCKKRFTWRSHLIG [R18W], the protein stability index was determined as 2.33.

Take HTGERPYECTVCKKRFTVRSHLIG [R18V]: the protein stability index turned out to be 1.59.

Take HTGERPYECTVCKKRFTIRSHLIG [R18I]: the protein stability index amounted to 2.7.

As to HTGERPYECTVCKKRFTHRSHLIG [R18H], the protein stability index was 1.76.

Turning to HTGERPYECTVCKKRFTCRSHLIG [R18C], the protein stability index came out at 2.97.

On to HTGERPYECTVCKKRFTLRSHLIG [R18L], for which the protein stability index was 1.74.

Turning to HTGERPYECTVCKKRFTFRSHLIG [R18F], the protein stability index came out at 2.18.

Turning to HTGERPYECTVCKKRFWRRSHLIG [T17W], the protein stability index worked out at 2.03.

Turning to HTGERPYECTVCKKRFDRRSHLIG [T17D], the protein stability index is 1.9.

As for HTGERPYECTVCKKRFRRRSHLIG [T17R], the protein stability index is 2.95.

On to HTGERPYECTVCKKRFLRRSHLIG [T17L], for which the protein stability index amounted to 2.19.

Regarding HTGERPYECTVCKKRFKRRSHLIG [T17K], the protein stability index came to 2.52.

In the case of HTGERPYECTVCKKRFVRRSHLIG [T17V], the protein stability index is 1.92.

On to HTGERPYECTVCKKRFFRRSHLIG [T17F], for which the protein stability index is 1.51.

Turning to HTGERPYECTVCKKRFHRRSHLIG [T17H], the protein stability index turned out to be 3.25.

As for HTGERPYECTVCKKRFERRSHLIG [T17E], the protein stability index is 2.63.
